Assay results taken from patent US20250277788A1 (GUIZHOU MEDICAL UNIVERSITY, published 2025).

B1: SARS-COV-2 N protein-specific single-chain antibody H6 (scFv, V domains shown)
VH: EVKLAESGPELVRPGVSVKISCKGSGYTFTDYPMHWVKQSHAKSLEWIGVISTYSGNTNYNQKFRGKATMTVDKSSSTAYMELARLTSEDSAIYYCTRGGNYGFDPWGQGTTLTVSS
notes: also called H6 antibody; scFv H6; not shown: C-terminal tags from the pHENHi vector (c-myc and a His tag, with the NotI junction)
B2: H6-AP fusion protein (single-chain antibody H6 fused to alkaline phosphatase) (other)
chain: MAEVKLAESGPELVRPGVSVKISCKGSGYTFTDYPMHWVKQSHAKSLEWIGVISTYSGNTNYNQKFRGKATMTVDKSSSTAYMELARLTSEDSAIYYCTRGGNYGFDPWGQGTTLTVSSAKTTAPSVGGGGSGGGGSGGGGSDIQMTQSHKFLSTSVGDRVNITCKASQDVGTAVAWYQQKPGQSPKLLIYWASTRHTGVPDRFTGSGSGTDFTLTITNVQSEDLAEYFCQQYSSYPLTFGSGTKIEMKRAVDSSGSTSGSGKPGSGEGSTAAAARAPEMPVLENRAAQGDITAPGGARRLTGDQTAALRDSLSDKPAKNIILLIGDGMGDSEITAARNYAEGAGGFFKGIDALPLTGQYTHYALNKKTGKPDYVTSSAASATAWSTGVKTYNGALGVDIHEKDHPTILEMAKAAGLATGNVSTAELQDATPAALVAHVTSRKCYGPSATSEKCPGNALEKGGKGSITEQLLNARADVTLGGGAKTFAETATAGEWQGKTLREQAQARGYQLVSDAASLNSVTEANQQKPLLGLFADGNMPVRWLGPKATYHGNIDKPAVTCTPNPQRNDSVPTLAQMTDKAIELLSKNEKGFFLQVEGASIDKQDHAANPCGQIGETVDLDEAVQRALEFAKKEGNTLVIVTADHAHASQIVAPDTKAPGLTQALNTKDGAVMVMSYGNSEEDSQEHTGSQLRIAAYGPHAANVVGLTDQTDLFYTMKAALGDIAHHHHHH
notes: also called fusion protein H6-AP

What was measured:
[1] = molecular target: T1, recombinant SARS-COV-2 N protein (SARS-COV-2, UniProt P0DTC9 1-419); assay: SPR (UA Biotech); orientation not stated
T1 construct: also called nucleocapsid protein

[2] = molecular target: T1, recombinant SARS-COV-2 N protein; assay: direct ELISA, N protein coated at 5 µg/mL, pNPP colour development
[3] = molecular target: T1, recombinant SARS-COV-2 N protein; assay: direct ELISA, N protein coated at 5 µg/mL, pNPP colour development for 90 min

Binder	Kd [1]	koff [1]	kon [1]	fold of OD405 nm over control group (blank blocked wells) [2]	fold of OD405 nm over control group (blank blocked wells) at 90 min [3]
B1	0.298 nM	0.000286 s⁻¹	958000 M⁻¹ s⁻¹		
B2				16 fold	31 fold
